This series has as its system MS2 coat protein. The experiment in a line: apparent KD of MS2 coat protein; designed switch direction (-1 OFF switch, 1 ON switch): 1; higher = weaker reporter binding. The procedure, abridged: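 Normalised cluster fluorescence was curve-fitted, and each design's median over clusters is its apparent KD. Before this, SNAP-549-labelled MS2 coat protein was titrated from 0.7 or 1.5 nM, doubling to 3 µM, over RNA switches transcribed on Illumina chips by stalled E. coli RNA polymerase. Titrations had no input, 200 uM small-molecule ligand, or an oligonucleotide input, and steps lasted 0.8–1.5 h (lowest) to 10–20 min (highest).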

Where [1] appears, read: input ligand: microRNA oligo, concentration not stated.
Where [2] appears, read: Eterna round: R95, input ligand: microRNA oligo, concentration not stated.
[3] abbreviates: Eterna round: R95, input ligand: FMN 200 uM.
The mark [4] stands for this setting: Eterna round: R95, input ligand: none.

The record followed here is the supplement of paper PMC9170038.

With “GUGGUCAGACAUGAGGAUCACCCAUGUGGAAUAAAUAACAGACAGGAUAUGUAAUAUAAAAUAUAACAGAAGGGUCGAUUGGUG (Eterna round: R96, puzzle: Same State NG 3)”, the “apparent KD of MS2 coat protein” value reads like this: (input ligand: FMN 200 uM) 79.6 nM; under setting [1], 64.7 nM; (input ligand: none) 93.9 nM.
On to “GGAGGACAUGAGGAUCACCCAUGUGGAUGAACGCUAGGAUAUGCGUGCAGGAAGAGUGGAGCAGAAGGAGUGGGAU [JR_SS1_Sub047] (puzzle: Same State 1)”, for which, under setting [2], the “apparent KD of MS2 coat protein” value was found to be 19.1 nM.
As for “GUGCUCGUGUAAGGAUAUGCAGCCGUUUCGGCUGCAGAAGGUACUAUAAUACAUGAGGAUCACCCAUGUCUCUAUAGUUUGGUG [salish99_SSNG1_r04_905] (Eterna round: R96, puzzle: Same State NG 1)”, the “apparent KD of MS2 coat protein” value under setting [1] was found to be 22.3 nM.
For “UUGAAGAAUUAAGGAUAUUGAGUACAUAUGUUUAACAUGAGGAUCACCCAUGUGGGUUGCGGUAUCGAGAAGGUAAAUUACAAG [JL SSNG2 1.44] (Eterna round: R96, puzzle: Same State NG 2)”, the “apparent KD of MS2 coat protein” value (input ligand: FMN 200 uM) turned out to be 105 nM, the “apparent KD of MS2 coat protein” value under setting [1] amounted to 91.8 nM and the “apparent KD of MS2 coat protein” value (input ligand: none) is 138 nM.
Consider “AGGUAACAUGAGGAUCACCCAUGUAAGGUGAACGUAGGAUAUCGAAGAGGUAGAGUAGGACGAGAAGGACGAGGAA [JR_SS1_Sub091] (puzzle: Same State 1)”, for which the “apparent KD of MS2 coat protein” value turned out to be 218 nM under setting [3], 239 nM under setting [2] and 414 nM under setting [4].
For “GUUAAACAUGAGGAUCACCCAUGUCAAUGUAGUCGAGGAUAUGGGUAGCCAUGAGGCGUACUAGAAGGCGAGGAGU [Mat - Same State 1 - Mod of JL - D19] (puzzle: Same State 1)” the same measures were 118 nM, 69.8 nM and 80.5 nM.
For “GUUACAUGAGGAUCACCCAUGUAUGUGUGGGAGUAAGUGUCUUAGGAUAUCUAUUAGUUAAAUUAAGAGAAGGAAGAUUGUUGU [JMF's solution 15] (Eterna round: R96, puzzle: Same State NG 3)”, under setting [1], the “apparent KD of MS2 coat protein” value was 91.4 nM.
Take “GGCCUGCCGCAAGGAUAUGAAGCUUUCGCUCCGUCAGAAGGUGCACAUGAGGAUCACCCAUGUAUGCAGGCCAAGAAAUAAACC [Tisoenat] (Eterna round: R96, puzzle: Same State NG 1)”: the “apparent KD of MS2 coat protein” value (input ligand: FMN 200 uM) stood at 13.2 nM, the “apparent KD of MS2 coat protein” value under setting [1] was 25.9 nM and the “apparent KD of MS2 coat protein” value (input ligand: none) came to 37.1 nM.
For “CUUCUUCCUUUUACAUGAGGAUCACCCAUGUUUUCAUAUUGAGAGGAUAUCGUAUUUGGAAACAUCGAGAAGGCUCAUUUGUAU [JR_SSNG3_Sub074] (Eterna round: R96, puzzle: Same State NG 3)” the same measures were 78.6 nM, 98.6 nM and 223 nM.
For “AGAUGUUAAUCAGGAUAUGGGCACAUGAGGAUCACCCAUGUAACGUAGAUACGAUGUGGUCAAGUCUAGAAGGGAUGGCUAACA [SameState NG2 #79] (Eterna round: R96, puzzle: Same State NG 2)”, in that order: 49.9 nM, 68.2 nM and 90.7 nM.
With “GUGCGGCUGCCACAGGAUAUACGUGGAUCGACAUGAGGAUCACCCAUGUAUAUCCUAAUAAUUGCGUAGAAGGGUGGUCAGCCAG [Iserinqu] (puzzle: Same State 2)”, the “apparent KD of MS2 coat protein” value was 90 nM under setting [3], 332 nM under setting [2] and 469 nM under setting [4].
As for “AUUUUUAAUGCAGGAUAUGAUUAACAUGAGGAUCACCCAUGUGGUGUUGUGAGUAAGGAGAGUGAUCAGAAGGGCAUUUUUUUA [JMF's solution 89] (Eterna round: R96, puzzle: Same State NG 2)”, the “apparent KD of MS2 coat protein” value by setting is: (input ligand: FMN 200 uM) 1010 nM; under setting [1], 554 nM; (input ligand: none) 585 nM.
Consider “AGAGCCGGCACUGAGGAUAUUCAUAUUAAAACAUGAGGAUCACCCAUGUAGGCCAGAAGGCCUUGGGAGAAGGCAGGUCGGCUCG [Mat - Same State 2 - Mod of UCT - D57] (puzzle: Same State 2)”, for which the “apparent KD of MS2 coat protein” value was found to be 23.5 nM under setting [3], 244 nM under setting [2] and 350 nM under setting [4].
For “AGCUAUCGAAAACGAUAGCAAAAGCAUGUACAUGAGGAUCACCCAUGUCAUGUGCAAGCUUUUUGCUCGUCUUAAAA [Zipper 23 - 4] (puzzle: Sensor for hsa-mir-208a)”, in that order: 163 nM, 10.7 nM and 208 nM.
For “UUACUCAUGUAAGGAUAUGCAGCCGUUUCGGCUGCAGAAGGUACUAUAAUACAUGAGGAUCACCCAUGUCUAUAAAAUAAAGAC [Mat - Same State NG 1 - JL mod - D81] (Eterna round: R96, puzzle: Same State NG 1)”, the “apparent KD of MS2 coat protein” value (input ligand: FMN 200 uM) was 69.5 nM, the “apparent KD of MS2 coat protein” value under setting [1] was 24 nM and the “apparent KD of MS2 coat protein” value (input ligand: none) worked out at 32.5 nM.
For “UGUUGUAUUACAGGAUAUCUAUUGUUUUUACUUAGAGAAGGGUAUUCACAUGAGGAUCACCCAUGUAUAUACGAGGAAGUUGUG [JMF's solution 83] (Eterna round: R96, puzzle: Same State NG 1)” the same measures were 39.2 nM, 31 nM and 41.8 nM.
Turning to “AUAAAACAUGAGGAUCACCCAUGUCAAUAAAGUCGAGGAUAUGGGCAAAUAAAAUAAGAACCAGAAGGCGAAUAAU [salish99_ss1_r3_042] (puzzle: Same State 1)”, the “apparent KD of MS2 coat protein” value is, setting by setting: under setting [3], 33.2 nM; under setting [2], 217 nM; under setting [4], 206 nM.
In the case of “UGAAUGGUGAUAGGAUAUACAUGAGGAAUCCUCGUAGAAGGAUCACGACAUGAGGAUCACCCAUGUAGCCGUCCGUAGACGGCA [JL SSNG1 1.23] (Eterna round: R96, puzzle: Same State NG 1)”, the “apparent KD of MS2 coat protein” value came out at 99.7 nM (input ligand: FMN 200 uM), 778 nM under setting [1] and 242 nM (input ligand: none).
Take “UAGUUUCAACGAGGAUAUAAUAGGUUCUAUUCGUGAUAUUGCGUACAUGAGGAUCACCCAUGUUAUUAGAAGGCGUAUGGGUUU [JR_SSNG2_Sub086] (Eterna round: R96, puzzle: Same State NG 2)”: the “apparent KD of MS2 coat protein” value reads like this: (input ligand: FMN 200 uM) 89.9 nM; under setting [1], 59.8 nM; (input ligand: none) 77.9 nM.
For the sequence “UGUUGUAUUACAGGAUAUCUAUUAGUUUUGUUUAGAGAAGGGUAUUCACAUGAGGAUCACCCAUGUAUAUACGAGGAAGUUGUG [JMF's solution 97] (Eterna round: R96, puzzle: Same State NG 1)”, the “apparent KD of MS2 coat protein” value under setting [1] was determined as 40.8 nM.
In the case of “UCUUGGUUUUUGCUCGUUUUUUGUGUUGAACAUGAGGAUCACCCAUGUAUUGUACGGUCCGAUUUAAUGAUGGUCCA [JMF 39] (puzzle: Sensor for hsa-mir-208a)”, the “apparent KD of MS2 coat protein” value came out at 32.4 nM under setting [3], 19.7 nM under setting [2] and 34.1 nM under setting [4].
For “UAAAUAAAGUAAGGAUAUACAUGAGGAUUUCUCGUAGAAGGUACAAGACAUGAGGAUCACCCAUGUAUCGCUCGAAAGAGCGUA [Mat - Same State NG 1 - JL mod - D22] (Eterna round: R96, puzzle: Same State NG 1)”, the “apparent KD of MS2 coat protein” value reads like this: (input ligand: FMN 200 uM) 126 nM; under setting [1], 67.5 nM; (input ligand: none) 208 nM.
Turning to “AGUAGUGUAACAUGAGGAUCACCCAUGUAAGAAGAUGUAACCUAGGAUAUGGAUGUUAUGUUUGACCAGAAGGAGGAUUGUUUA [JR_SSNG3_Sub040] (Eterna round: R96, puzzle: Same State NG 3)”, the “apparent KD of MS2 coat protein” value reads like this: (input ligand: FMN 200 uM) 22.6 nM; under setting [1], 32.1 nM; (input ligand: none) 37.1 nM.
For “GCUAGGAUAUGACGAGGAUCACCCGUUAGAAGGAGCGAAGGCUAGGAUAUGACGAGGAUCACCCGUUAGAAGGAGCUGUACUCU [pwkr ssNG3 DX 2xF5 +2xFMN.10] (Eterna round: R96, puzzle: Same State NG 3)” the same measures were 188 nM, 64.9 nM and 80.3 nM.
For “GGAGCCGGCCUAGGAUAUUUCAUUAAAAUACAUGAGGAUCACCCAUGUAGGCCAGAAGGCCUUGGGAAGAAGGAGGUCGGCUCC [Loop Effect - U24,U29] (Eterna round: R96, puzzle: Same State NG 2)” the same measures were 9.56 nM, 17.6 nM and 23.1 nM.
For “UAGUACAAGCUUUUUGCUUGUCUUAUUUAACAUGAGGAUCACCCAUGUAAGUUGAAAGUUAGAGAGUGCACCUUCAA [JR_SHM208A_Sub052] (Eterna round: R96, puzzle: Sensor for hsa-mir-208a)”, in that order: 17.2 nM, 17 nM and 21.6 nM.
With “AGAUAGUGUGGAAAGGAUAUACUGUUGAGGACAUGAGGAUCACCCAUGUGGUAGAGGAGGUAAGGGUAGAAGGUUCGGGAUUGGU [JR_SS@_Sub019] (puzzle: Same State 2)”, the “apparent KD of MS2 coat protein” value was 32.6 nM under setting [3], 34.5 nM under setting [2] and 47.1 nM under setting [4].
For “UAGUACAAGCUUUUUGCUUGUCUUAUUUAACAUGAGGAUCACCCAUGUAAGUUGAAAGUUAGAGAGUGCACCUUCAA [JR_SHM208A_Sub052] (puzzle: Sensor for hsa-mir-208a)” the same measures were 18.7 nM, 18.9 nM and 17.1 nM.
